The text below walks through data of PMC5404317.

This experiment has as its target HSP90, P07900. Kind of experiment: co-immunoprecipitation (V5 agarose) with western blot quantification. The following applies: chain shown with the change, HeLa cells, read off a plot.
The mark [1] stands for this setting: 10 μM CCCP for 2 h, parent: est. 0.82.
Where [2] appears, read: untreated (no CCCP), parent: est. 1.0.

Residue numbers refer to the chain shown, from its start. Numbers in names are those of the source.

B1: PINK1-V5 WT (V5-6xHis-tagged PINK1 wild type), Q9BXM7 L347P (protein)
chain: AARLQRQFVVRAWGCAGPCGRAVFLAFGLGLGLIEEKQAESRRAVSACQEIQAIFTQKSKPGPDPLDTRRLQGFRLEEYLIGQSIGKGCSAAVYEATMPTLPQNLEVTKSTGLLPGRGPGTSAPGEGQERAPGAPAFPLAIKMMWNISAGSSSEAILNTMSQELVPASRVALAGEYGAVTYRKSKRGPKQLAPHPNIIRVLRAFTSSVPLLPGALVDYPDVLPSRLHPEGLGHGRTLFLVMKNYPCTLRQYLCVNTPSPRLAAMMLLQLPEGVDHLVQQGIAHRDLKSDNILVELDPDGCPWLVIADFGCCLADESIGLQLPFSSWYVDRGGNGCLMAPEVSTARPGPRAVIDYSKADAWAVGAIAYEIFGLVNPFYGQGKAHLESRSYQEAQLPALPESVPPDVRQLVRALLQREASKRPSARVAANVLHLSLWGEHILALKNLKLDKMVGWLLQQSAATLLANRLTEKCCVETKMKMLFLANLECETLCQAALLLCSWRAAL
As for B1, the response (HSP90/V5 ratio) runs as follows: under setting [1], 0.42; under setting [2], 0.54.

B2: PINK1-V5 WT (V5-6xHis-tagged PINK1 wild type), Q9BXM7 I368N (protein)
chain: B1 chain with P270L, I291N
Take B2: the response (HSP90/V5 ratio) under setting [1] is 0.62 and the response (HSP90/V5 ratio) under setting [2] came to 0.6.
